Data from patent US7294706.
Where a chain is given by its changes, count along the chain named. Names may count otherwise.

B1: FGF4 (Gly79-Leu206) Y87A (ligand)
chain: GIKRLRRLACNVGIGFHLQALPDGRIGGAHADTRDSLLELSPVERGVVSIFGVASRFFVAMSSKGKLYGSPFFTDECTFKEILLPNNYNAYESYKYPGMFIALGKNGKTKKGNRVSPTMKVTHFLPRL
B2: FGF4 (Gly79-Leu206) F129A (ligand)
chain: B1 chain with A9Y, F51A
B3: FGF4 (Gly79-Leu206) L203A (ligand)
chain: B1 chain with A9Y, L125A
B4: FGF4 (Gly79-Leu206) R205A (ligand)
chain: B1 chain with A9Y, R127A
B5: FGF4 (Gly79-Leu206) Y166A (ligand)
chain: B1 chain with A9Y, Y88A
B6: FGF4 (Gly79-Leu206) E117A (ligand)
chain: B1 chain with A9Y, E39A
B7: FGF4 (Gly79-Leu206) L162A (ligand)
chain: B1 chain with A9Y, L84A
B8: FGF4 (Gly79-Leu206) E159A (ligand)
chain: B1 chain with A9Y, E81A
B9: FGF4 (Gly79-Leu206) F151A (ligand)
chain: B1 chain with A9Y, F73A
B10: FGF4 (Gly79-Leu206) H201A (ligand)
chain: B1 chain with A9Y, H123A
B11: N-terminal truncated wild-type FGF4 (Gly79-Leu206) (ligand)
chain: B1 chain with A9Y

target: FGFR2 over-expressed on CHO cells (CHO-FGFR2) and on 32D cells (32D-FGFR2) (UniProt P21803); assay: cell-based or functional assay

| Binder | DNA Synthesis NIH 3T3 cells (ED50 mutant/ED50 wild-type), +heparin (ratio ED50 mutant/ED50 wild-type) | DNA Synthesis NIH 3T3 cells (ED50 mutant/ED50 wild-type), -heparin (ratio ED50 mutant/ED50 wild-type) |
| --- | --- | --- |
| B1 | 500 | > 500 |
| B2 | > 500 | > 500 |
| B3 | > 500 | > 500 |
| B4 | 2.5 | 25 |
| B5 | > 500 | 500 |

target: FGFR2 over-expressed on CHO cells (CHO-FGFR2) and on 32D cells (32D-FGFR2) (UniProt P21803); assay: competition of unlabeled protein with 125I-FGF4 (Gly79-Leu206) for CHO-FGFR2 cells, +heparin

| Binder | IC50 mutant/IC50 wild-type (ratio (IC50 mutant/IC50 wild-type)) |
| --- | --- |
| B1 | > 100 |
| B6 | 7 |
| B2 | > 100 |
| B3 | > 100 |
| B7 | > 1000 |
| B8 | 5 |
| B9 | 2.5 |
| B4 | 2.5 |
| B10 | > 1000 |
| B5 | > 100 |
| B11 | 1 |
